Ends that are not written are not given here.
Tests used:
[1] = molecular target: T1, GST-talin head Arg^358->Gln mutant (human, UniProt Q9Y490 1-435); test: GST pull-down
T1 construct: Talin head mutant in pET42; also called mutant GST-talin; not shown: GST (and further tags) of the pET42 vector
Experimental: (§1) Purified GST-talin head proteins were incubated with PIPKIγ661 tails or β1-integrin tail, together with Glutathione SEPHAROSE™ 4 Fast Flow (Amersham Biosciences, Piscataway, N.J.), in Buffer B (PBS, 0.2% NP-40, 2 mM DTT) at 4° C. for 4 hours. The beads were washed three times with Buffer B and analyzed by western blot. For competition assays, GST-talin head proteins were incubated with peptides or competing proteins for 2 hours, then the binding proteins were added and the mixtures were incubated for another 4 hours.

[2] = molecular target: T2, GST-talin head Lys^357->Gln mutant (human, UniProt Q9Y490 1-435); test: GST pull-down
T2 construct: Talin head mutant in pET42; also called mutant GST-talin; not shown: GST (and further tags) of the pET42 vector
Experimental: as §1

T1 sequence (Q9Y490 other isoform, or with tags, fused parts or gaps mutant): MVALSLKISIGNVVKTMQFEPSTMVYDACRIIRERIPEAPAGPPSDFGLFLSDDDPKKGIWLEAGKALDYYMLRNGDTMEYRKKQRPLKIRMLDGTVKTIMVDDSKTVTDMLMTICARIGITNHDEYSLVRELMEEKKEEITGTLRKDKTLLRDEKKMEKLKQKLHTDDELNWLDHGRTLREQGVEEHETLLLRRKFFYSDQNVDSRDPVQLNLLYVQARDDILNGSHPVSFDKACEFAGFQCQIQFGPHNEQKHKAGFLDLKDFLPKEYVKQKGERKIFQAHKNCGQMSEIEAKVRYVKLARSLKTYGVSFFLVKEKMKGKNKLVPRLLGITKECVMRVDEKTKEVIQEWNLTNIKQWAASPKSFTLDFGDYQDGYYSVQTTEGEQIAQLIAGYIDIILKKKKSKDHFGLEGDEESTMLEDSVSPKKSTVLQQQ
T2 sequence (Q9Y490 other isoform, or with tags, fused parts or gaps mutant): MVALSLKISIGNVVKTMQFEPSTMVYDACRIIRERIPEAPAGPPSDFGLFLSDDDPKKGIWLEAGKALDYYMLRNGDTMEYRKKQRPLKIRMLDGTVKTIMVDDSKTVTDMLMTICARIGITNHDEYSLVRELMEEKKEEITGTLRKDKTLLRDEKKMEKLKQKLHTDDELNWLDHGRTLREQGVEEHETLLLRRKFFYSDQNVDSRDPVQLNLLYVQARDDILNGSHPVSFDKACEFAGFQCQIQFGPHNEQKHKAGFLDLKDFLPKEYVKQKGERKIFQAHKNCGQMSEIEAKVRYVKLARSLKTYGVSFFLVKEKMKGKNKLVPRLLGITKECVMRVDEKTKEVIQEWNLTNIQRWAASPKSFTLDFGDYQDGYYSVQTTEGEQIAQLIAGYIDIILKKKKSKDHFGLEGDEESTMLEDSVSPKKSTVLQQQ

B1: His-tagged mouse β1-integrin tail (receptor, UniProt P09055 752-798, looked up)
chain: KLLMIIHDRREFAKFEKEKMNAKWDTGENPIYKSAVTTVVNPKYEGK
modifications: not fully specified (N-terminus); also: N-terminal His tag of pET28 vector, sequence not given here
notes: domain: tail; also called His-β1-integrin tail; His-β-integrin; not shown: His tag of the pET28 vector
Question: Does B1 bind [1]?
Answer: no binding

Question: Does B1 bind [2]?
Answer: no binding

Reference: patent US20040265295A1 (WISCONSIN ALUMNI RESEARCH FOUNDATION, published 2004)
